From publication PMC8810155, “The eptinezumab:CGRP complex structure – the role of conformational changes in binding stabilization” (Bioengineered, 2021) come the findings set out here.

In the assay the target is T1, α-CGRP (human) 37-mer peptide (calcitonin gene-related peptide) (Homo sapiens, UniProt P06881, C-terminal amide (amidated Phe119)).
T1 construct: human alpha-CGRP, mature 37-residue hormone; mature residues 26-37 correspond to 108-119 of the pro-hormone, so mature 1-37 would be 83-119; Only residues 26-37 (mature numbering; 108-119 of the pro-hormone) are visible in the complex structure; source: bought: Bachem
T1 chain: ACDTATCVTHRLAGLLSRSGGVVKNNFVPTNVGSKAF
Description: crystal structure; CGRP mixed with the Fab, complex purified by SEC; crystals at 20°C in sitting drops, 26% PEG MME 550, 9.5 mM ZnSO4, 95 mM MES pH 6.5, 30 mM glycyl-glycyl-glycine; X-ray diffraction to 3.10 Å; 2 Fab and 2 CGRP per asymmetric unit. The settings on record: both partners purified. On the technique in general: In gel filtration, larger molecules generally elute earlier.

B1: eptinezumab antigen-binding fragment (Fab) (Fab, V domains shown)
VH: EVQLVESGGGLVQPGGSLRLSCAVSGIDLSGYYMNWVRQAPGKGLEWVGVIGINGATYYASWAKGRFTISRDNSKTTVYLQMNSLRAEDTAVYFCARGDIWGQGTLVTVSS
VL: QVLTQSPSSLSASVGDRVTINCQASQSVYHNTYLAWYQQKPGKVPKQLIYDASTLASGVPSRFSGSGSGTDFTLTISSLQPEDVATYYCLGSYDCTNGDCFVFGGGTKVEIK
notes: heavy-chain part of the papain Fab of eptinezumab (humanized IgG1); light chain of eptinezumab; CDR L3 holds a disulfide bond (Cys95, Cys100 are named); also called eptinezumab Fab; source: partial endoproteolysis of eptinezumab with immobilized papain; purified by Fc depletion followed by SEC
As for B1, the binding result is “binds”.
